T1: human Nectin-4 Mutant 8 (T190A/T191Q/S193A) (Homo sapiens, UniProt Q96NY8, S193A/T190A/T191Q)
T1 construct: expressed in transfected cells; host or cells: HEK293T
T1 sequence (Q96NY8 32-510 T190A/T191Q/S193A): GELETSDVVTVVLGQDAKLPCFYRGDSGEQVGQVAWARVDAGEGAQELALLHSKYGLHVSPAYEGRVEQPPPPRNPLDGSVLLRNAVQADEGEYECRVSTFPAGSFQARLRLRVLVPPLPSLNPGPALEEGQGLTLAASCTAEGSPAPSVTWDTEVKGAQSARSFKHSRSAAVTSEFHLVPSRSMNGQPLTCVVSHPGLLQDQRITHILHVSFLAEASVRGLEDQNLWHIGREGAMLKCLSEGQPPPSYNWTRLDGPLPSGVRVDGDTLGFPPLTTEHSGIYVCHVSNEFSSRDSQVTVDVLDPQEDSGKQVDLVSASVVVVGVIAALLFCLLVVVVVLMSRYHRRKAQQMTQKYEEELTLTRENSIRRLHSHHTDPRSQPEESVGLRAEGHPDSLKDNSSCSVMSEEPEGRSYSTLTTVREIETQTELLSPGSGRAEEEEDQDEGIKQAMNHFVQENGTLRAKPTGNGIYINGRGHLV

T2: human Nectin-4 Mutant 9 (L150S/S152A/Q234R/I236S) (Homo sapiens, UniProt Q96NY8, I236S/L150S/Q234R/S152A)
T2 construct: expressed in transfected cells; host or cells: HEK293T
T2 sequence (Q96NY8 32-510 L150S/S152A/Q234R/I236S): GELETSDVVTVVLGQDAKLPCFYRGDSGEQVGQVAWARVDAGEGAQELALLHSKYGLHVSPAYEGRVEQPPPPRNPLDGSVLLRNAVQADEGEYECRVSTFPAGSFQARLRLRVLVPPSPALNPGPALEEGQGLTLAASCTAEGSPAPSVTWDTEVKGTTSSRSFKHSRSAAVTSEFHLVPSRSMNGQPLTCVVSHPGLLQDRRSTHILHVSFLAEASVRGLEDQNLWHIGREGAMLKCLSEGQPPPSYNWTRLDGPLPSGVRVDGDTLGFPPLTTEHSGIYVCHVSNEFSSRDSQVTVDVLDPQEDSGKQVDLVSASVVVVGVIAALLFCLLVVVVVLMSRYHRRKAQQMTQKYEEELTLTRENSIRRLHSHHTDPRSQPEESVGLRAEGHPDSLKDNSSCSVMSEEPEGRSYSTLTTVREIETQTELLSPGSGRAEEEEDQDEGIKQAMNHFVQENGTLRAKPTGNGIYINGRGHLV

T3: human Nectin-4 Mutant 7bis (A72P/G73N/K197T/S199A) (Homo sapiens, UniProt Q96NY8, A72P/G73N/K197T/S199A)
T3 construct: expressed in transfected cells; host or cells: HEK293T
T3 sequence (Q96NY8 32-510 A72P/G73N/K197T/S199A): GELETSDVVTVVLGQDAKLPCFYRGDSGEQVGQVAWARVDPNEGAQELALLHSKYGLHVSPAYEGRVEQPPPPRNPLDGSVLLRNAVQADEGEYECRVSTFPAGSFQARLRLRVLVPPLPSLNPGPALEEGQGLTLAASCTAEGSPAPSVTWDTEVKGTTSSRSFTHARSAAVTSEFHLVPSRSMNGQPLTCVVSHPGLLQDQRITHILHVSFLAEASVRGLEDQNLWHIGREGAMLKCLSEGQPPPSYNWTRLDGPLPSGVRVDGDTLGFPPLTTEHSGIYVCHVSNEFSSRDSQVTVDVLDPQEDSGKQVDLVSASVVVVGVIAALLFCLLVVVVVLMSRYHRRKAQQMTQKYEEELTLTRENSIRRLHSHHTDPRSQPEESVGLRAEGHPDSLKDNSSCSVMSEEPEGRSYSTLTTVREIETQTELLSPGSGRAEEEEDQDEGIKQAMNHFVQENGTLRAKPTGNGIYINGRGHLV


Experiments:
Experiment in all cases: Epitope mapping using Nectin-4 point mutants
Assay type in all cases: binding
[1] = target: T1, human Nectin-4 Mutant 8 (T190A/T191Q/S193A)
From the text: (§1) Combined with the published structures of the Nectin-4 domains, Nectin-4 mutations at surface exposed amino acids residues were designed. Nectin-4 domain structure was modelled based on Protein Data Bank reference: 4FRW (domains V et C1). Human Nectin-4 used was NCBI Reference Sequence: NP_112178.2, mouse Nectin-4 used was NCBI Reference Sequence: AAL79833.1, cynomolgus Nectin-4 used was NCBI Reference Sequence: XP_005541277.1, rat Nectin-4 used was NCBI Reference Sequence: NP_001102546.1. The cells expressing the Nectin-4 mutants are then be used for testing anti-Nectin-4 antibodies for loss of binding to different Nectin-4 mutants to identify antibodies that bind to the same site on Nectin-4. […] FIGS. 8A and 8B show different view of a molecular model of the human Nectin-4 protein, indicating the position of substituted residues in mutants 1, 2, 3, 4, 5, 6, 7, 8 and 9.
(§2) Nectin-4 mutants were generated by PCR. The sequences amplified were run on agarose gel and purified using the Macherey Nagel PCR Clean-Up Gel Extraction kit. The purified PCR products generated for each mutant were then ligated into an expression vector, with the ClonTech InFusion system. The vectors containing the mutated sequences were prepared as Miniprep and sequenced. After sequencing, the vectors containing the mutated sequences were prepared as Midiprep using the Promega PureYield™ Plasmid Midiprep System. HEK293T cells were grown in DMEM medium (Invitrogen), transfected with vectors using Invitrogen's Lipofectamine 2000 and incubated at 37° C. in a CO2 incubator for 48 hours prior to testing for transgene expression. The targeted amino acid mutations are shown in Table 13 below, listing the residue present in wild-type Nectin-4/position of residue/residue present in mutant Nectin-4, with position reference being to the Nectin-4 protein with leader peptide shown in SEQ ID NO: 1.
(§3) (+) means that antibodies-Nectin-4 association occurs.

[2] = target: T2, human Nectin-4 Mutant 9 (L150S/S152A/Q234R/I236S)
From the text: as §1, §2, §3

[3] = system: human Nectin-4 Mutant 5 (A158P/E160G/S243A/F244S); conditions: results irrelevant due to an absence of expression of said protein
From the text: as §1, §2, §3

[4] = target: T3, human Nectin-4 Mutant 7bis (A72P/G73N/K197T/S199A)
From the text: as §1, §2, §3

| Molecule | association with Mutant 8 [1] | association with Mutant 9 [2] | association with Mutant 5 [3] | association with Mutant 7bis [4] |
| --- | --- | --- | --- | --- |
| 5E7 (antibody, V domains shown) VH: QVQLQQPGAELVKPGASVKLSCKASGYIFTSYWMHWVKQRPGQGLEWIGEIDPSDSYTNYNQKFKGKATLTLDKSSSTTYMQLSSLTSEDSAVYYCVRGYGNYGDYWGQGTTLTVSSASTKGP VL: DVVMTQAAFSNPVTLGTSASISCRSSKSLLHSNGITYLYWYLQKPGQSPQLLIYQMSNLASGVPDRFSSSGSGTDFTLRISRVEAEDVGVYYCAQNLELPWTFGGGTKLEIKRTVAAP | + | + | − | − |
| N41 (antibody, V domains shown) VH: QVQLKQSGPGLVQPSQSLSITCTVSGFSLTNYGVHWVRQSPGKGLEWLGVIWSGGSTDYNAAFISRLSISKDTSKSQVFFKMNSLQADDTAIYYCARELIHAMDNWGQGTSVTVSS VL: DIQMTQSPASLSVSVGETVTITCRASENIYSNLAWYQQKQGNSPQLLVFAATNLADGVPSRFSGSGSGTQYSLKINSLQSEDFGTYYCQHFWGTPTFGGGTKLEIK | + | + | − | + |

From US20250297004A1, “NECTIN-4 BINDING AGENTS” (INNATE PHARMA, priority 2022, published 2025)
